In assay [1] the target is FLAG-tagged IL-13Rα1-gp130 chimeric receptor (human). The assay can be described thus: cell-based or functional assay.
The target of assay [2] is T1, FLAG-tagged IL-4Rα-gp130 chimeric receptor.
T1 sequence: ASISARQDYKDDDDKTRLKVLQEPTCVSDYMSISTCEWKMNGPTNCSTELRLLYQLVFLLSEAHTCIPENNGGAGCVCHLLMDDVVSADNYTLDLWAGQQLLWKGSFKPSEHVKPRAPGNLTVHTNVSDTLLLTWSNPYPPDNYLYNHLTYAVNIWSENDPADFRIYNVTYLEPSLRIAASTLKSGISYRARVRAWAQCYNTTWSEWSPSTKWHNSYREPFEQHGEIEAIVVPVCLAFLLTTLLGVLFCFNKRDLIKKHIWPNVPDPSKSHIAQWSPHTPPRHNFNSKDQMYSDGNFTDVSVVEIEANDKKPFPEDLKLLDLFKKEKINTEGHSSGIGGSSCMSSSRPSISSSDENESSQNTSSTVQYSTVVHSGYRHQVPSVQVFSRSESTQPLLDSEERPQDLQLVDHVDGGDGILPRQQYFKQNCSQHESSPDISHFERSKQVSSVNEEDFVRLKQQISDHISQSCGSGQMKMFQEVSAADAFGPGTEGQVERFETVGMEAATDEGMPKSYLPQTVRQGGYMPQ
The assay can be described thus: cell-based or functional assay.

Chain of IL-4 (species not stated) (ligand) (P05112 25-153): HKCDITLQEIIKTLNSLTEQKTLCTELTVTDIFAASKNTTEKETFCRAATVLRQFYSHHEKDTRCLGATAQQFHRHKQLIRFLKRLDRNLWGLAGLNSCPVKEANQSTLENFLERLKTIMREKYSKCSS

Turning to IL-13 (species not stated) (ligand), the 50% of maximal activity, STAT-3 luciferase reporter, lines 3.1.2 and 3.2.4 in assay [1] was 100 to 200 pg/mL.
On to IL-4 (species not stated) (ligand), for which the 50% of maximal activity, STAT-3 luciferase reporter, lines 3.1.2 and 3.2.4 in assay [2] lay in the range of 2 to 4 ng/mL.
